From PMC10148134 come the findings set out here.

Assay [1] deals with ovalbumin (OVA) (UniProt P01012). As to the kind of experiment: BLI; 10 μg/mL proteins (OVA, Bm-SA) coupled on AR2G or SA sensors; various concentrations of βγ-CAT as analyte, PBS as buffer; association 300 s, dissociation 180 s; Octet R2; 1:1 model.
Assay [2] has as its target toad B. maxima serum albumin (Bm-SA) (Bombina maxima) (UniProt Q3T478). Described as above.

One may read the Kd as the equilibrium constant for the complex coming apart.

UniProt P01012, sequence (P01012 whole entry): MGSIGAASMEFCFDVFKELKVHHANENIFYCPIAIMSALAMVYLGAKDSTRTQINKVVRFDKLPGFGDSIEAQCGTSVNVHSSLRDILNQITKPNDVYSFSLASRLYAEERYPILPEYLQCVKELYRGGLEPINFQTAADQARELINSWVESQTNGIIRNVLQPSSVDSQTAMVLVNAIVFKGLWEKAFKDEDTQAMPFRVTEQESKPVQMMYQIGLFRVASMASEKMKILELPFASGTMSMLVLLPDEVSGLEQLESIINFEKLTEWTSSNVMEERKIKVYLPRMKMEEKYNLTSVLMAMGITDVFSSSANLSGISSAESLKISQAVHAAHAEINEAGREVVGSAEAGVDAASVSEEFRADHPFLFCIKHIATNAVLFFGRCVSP
UniProt Q3T478, sequence (Q3T478 23-607): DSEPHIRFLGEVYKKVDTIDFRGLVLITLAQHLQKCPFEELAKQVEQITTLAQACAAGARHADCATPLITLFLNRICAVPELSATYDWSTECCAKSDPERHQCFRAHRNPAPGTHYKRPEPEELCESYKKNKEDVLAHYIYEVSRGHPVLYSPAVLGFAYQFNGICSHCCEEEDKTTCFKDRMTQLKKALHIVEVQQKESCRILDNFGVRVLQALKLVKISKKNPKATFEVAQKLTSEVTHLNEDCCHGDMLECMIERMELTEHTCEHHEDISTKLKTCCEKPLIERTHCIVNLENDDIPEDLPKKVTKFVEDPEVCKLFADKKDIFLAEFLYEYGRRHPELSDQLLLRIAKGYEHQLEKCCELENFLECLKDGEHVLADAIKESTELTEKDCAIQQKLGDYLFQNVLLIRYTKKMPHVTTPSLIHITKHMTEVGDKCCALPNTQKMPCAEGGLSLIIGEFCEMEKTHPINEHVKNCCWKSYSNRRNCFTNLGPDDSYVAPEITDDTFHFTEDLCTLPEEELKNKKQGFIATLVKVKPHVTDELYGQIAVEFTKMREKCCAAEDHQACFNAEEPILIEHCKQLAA

Turning to “βγ-CAT, pore-forming protein (PFP) and trefoil factor complex of BmALP1 and BmTFF3 from toad Bombina maxima”, the Kd amounted to 23.3 nM in assay [1] and 24.7 nM in assay [2].
